From patent US20230031280A1, “GLP-2 FUSION POLYPEPTIDES AND USES FOR TREATING AND PREVENTING GASTROINTESTINAL CONDITIONS” (SHIRE-NPS PHARMACEUTICALS, INC., priority 2017, published 2023)

How the values were obtained:
human GLP-2R = biological target: T1, human GLP-2R (Homo sapiens, UniProt O95838); assay: cAMP Hunter eXpress GLP2R CHO-K1 GPCR assay; format: cell-based
T1 construct: host or cells: CHO-K1
T1 sequence (O95838 1-553): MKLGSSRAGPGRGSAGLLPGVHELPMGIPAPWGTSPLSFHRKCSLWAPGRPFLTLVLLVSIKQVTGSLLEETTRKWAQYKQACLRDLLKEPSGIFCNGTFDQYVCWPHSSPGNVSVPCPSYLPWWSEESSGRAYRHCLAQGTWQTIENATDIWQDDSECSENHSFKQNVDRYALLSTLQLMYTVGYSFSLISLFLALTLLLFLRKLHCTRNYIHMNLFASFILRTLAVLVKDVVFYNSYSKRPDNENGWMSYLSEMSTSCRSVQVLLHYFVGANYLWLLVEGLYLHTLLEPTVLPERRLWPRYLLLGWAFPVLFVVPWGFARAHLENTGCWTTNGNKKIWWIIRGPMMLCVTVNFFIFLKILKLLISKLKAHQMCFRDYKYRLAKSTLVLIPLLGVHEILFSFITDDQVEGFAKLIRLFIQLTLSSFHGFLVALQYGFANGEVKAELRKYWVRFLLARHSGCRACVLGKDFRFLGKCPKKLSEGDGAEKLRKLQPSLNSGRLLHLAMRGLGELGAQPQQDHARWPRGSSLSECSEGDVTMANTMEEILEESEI
Description: The cAMP Hunter™ assay is based on enzyme fragment complementation (EFC). In EFC assay, the enzyme donor is fused to cAMP. Increased intracellular cAMP due to GLP2R activation competes with ED-cAMP for antibody. Unbound ED-cAMP complements the enzyme acceptor to form active beta galactosidase, which subsequently produces a luminescent signal.
The CHO-K1 cell line used is overexpressing human GLP-2R (Genbank accession number NM004246.1). […] Their activities were assayed via measurement of the concentration of cAMP in the media.

[1] = SEC-MALS (Sepax Zenix C-150) peak distribution; format: physicochemical
Description: A SEC-MALS assay was performed to determine the primary state (main peak) and its molecular weight. […] The GLP-2 peptibody O (albumin fusion) eluted at a molecular weight indicative of a monomer.
(§1) Stability analysis was then performed using SEC-MALS and NanoDSF. For SEC-MALS, a Sepax Zenix C-150 column was used. The mobile phase buffer was 1× PBS with a final concentration of 400 mM NaCl. The flow rate was 0.8 mL per minute. 20 micrograms of total protein was injected. For NanoDSF, 10 microliters of sample was used, without normalization of the samples.
as §1

[2] = Rat pharmacokinetic comparability with/without C-terminal lysine; format: in vivo, Sprague-Dawley rats; conditions: in vivo, 1 mg/kg
Description: 1 mg/kg of total GLP-2 peptibody K protein was administered subcutaneously to one group of six male Sprague-Dawley rats. 1 mg/kg of total GLP-2 peptibody K274 protein was administered intravenously to another group of six male Sprague-Dawley rats. 1 mg/kg of total GLP-2 peptibody B protein was administered subcutaneously to a third group of five male Sprague-Dawley rats. 1 mg/kg of total GLP-2 peptibody B264 protein was administered subcutaneously to a fourth group of five male Sprague-Dawley rats.
For all of the above groups, plasma samples were taken pre-dose, and at the following time points post-dose: 5 minutes (day 1), 10 minutes (day 1), 20 minutes (day 1), 30 minutes (day 1), 1 hour (day 1), 2 hours (day 1), 6 hours (day 1), 24 hours (day 2), 48 hours (day 3), 72 hours (day 4), 120 hours (day 6), 168 hours (day 8), 240 hours (day 11), and 336 hours (day 15).
Tables showing the pharmacokinetic data comparing intravenously administered GLP-2 peptibody K and GLP-2 peptibody K274 are in FIG. 10B. Tables showing the pharmacokinetic data comparing subcutaneously administered GLP-2 peptibody K and GL-2 peptibody K274 are in FIG. 10C.

[3] = biological target: T2, hFcRn (extracellular domain of the FcRN) (Homo sapiens, UniProt P55899); assay: FcRn binding by surface plasmon resonance (Biacore)
T2 construct: made in house
Text: Binding to the Fc neonatal receptor (FcRN) allows for recycling of the molecules and leads to an extended in vivo serum half-life of the Fc fusion proteins. Recycling occurs as the molecules are passively taken into the cells and the pH of the endosomes is lower. That leads to binding of the Fc portion of the molecule to the FcRN. When the FcRN recycles back to the surface of the cell, the pH is then neutral and the protein is released back into the serum.
Binding to the extracellular domain of the FcRN was measured by surface plasmon resonance (SPR) using a Biacore system. Direct immobilization with FcRn was achieved via amine coupling of a CM5 chip with FcRn under the following conditions: • i) hFcRn (expressed and purified in house) is diluted in Acetate buffer pH 5.0 to 5 μg/mL. • ii) Immobilize 5 μg/mL of FcRn with target of 500 RU on CM5 chip in PBS pH 7.0 • iii) Final response 454 RU • iv) Running buffer: PBS-P+, pHed to 5.5
The kinetic binding study was done using the following protocol. Samples were diluted in PBS-P+ to 50, 25, 12.5, 6.25, 3.125, 1.56, 0.78, 0.39, 0 nM. The parameters were set as follows: • i) Association and Dissociation 300 s at Flow rate 30 μL/min • ii) Regeneration with 25 mM Tris, 150 mM NaCl pH 8.0 40 s at 60 μL/min
A measurement of the binding of the GLP-2 peptibodies to the Fc neonatal receptor (FcRN) was undertaken at pH 5.5 and pH 7.4.

- reduction of activity vs GLP-2[A2G] (human GLP-2R): about five-fold
- Kd ([3]; pH 5.5): 1.95 nM
- FcRN KD at pH 7.4 ([3]; pH 7.4): No binding in range tested.
Substance: GLP-2 peptibody K: GLP-2[A2G]-GGGGSGGGGSGGGGS linker-IgG1 Fc (LALA) with C-terminal lysine; SEQ ID NO: 10
- SEC-MALS Zenix C-150 main peak [1]: 80.2% main peak, 149,900 g/mol
- pharmacokinetic comparability of K and K274 [2]: identical from a pharmacokinetic point of view
